Results on one molecule are retold here after US20210340232A1, “MONOCLONAL ANTIBODIES AGAINST HUMAN DICKKOPF3 AND USES THEREOF” (Board of Regents, The University of Texas System, priority 2018, published 2021).

Assay [1] deals with KPC/DKK3-/- model of PDAC. The assay can be described thus: Survival of KPC/DKK3-/- mice (P48-Cre; Kras LSL-G12D;Trp53fl/fl; dkk3-/-). In kind it is in vivo, mouse. The protocol: HPSCs and BxPC3 cells were treated with DKK3 mAb clones JM6-6-1 and JM8-12-1 or isotype control mAb or PBS. (FIGS. 5A-B) HPSC apoptosis and migration as measured by FACS and Transwell migration assay at 48 hours. (FIG. 5C) BxPC3 migration in response to rhDKK3 10 μg/ml as measured by Transwell migration assay at 48 hours. (FIG. 5D) BxPC3 resistance to gemcitabine 100 μM as measured by MTS proliferation assay at 6 days. HPSC-CM, pancreatic stellate cell conditioned media, 10 μg/ml. The orthotopic co-injection BxPC3+ HPSC model of PDAC was used to test the efficacy of DKK3 mAb clones JM6-6-1 or JM8-12-1 (5 mg/kg i.p. once every 5 days). (FIG. 5E) Overall tumor progression was measured every 3-4 days by IVIS imaging. […]
FIGS. 6A-F. DKK3 blockade is associated with increased tumor immune infiltrates and improves response to checkpoint inhibitor therapy. (FIG. 6A) T cells were stimulated, treated with DKK3 (5-10 μg/mL) and proliferation was measured by CFSE assay. In a syngeneic orthotopic model with luciferase-labeled KPC cells, tumors were examined for CD3 and CD8 expression by IHC (FIG. 6B) and additional markers of T cell activity were measured by quantitative PCR (FIG. 6C). Mice in this model were treated with either control IgG, DKK3 mAb JM6-6-1, αCTLA4 or the combination JM6-6-1+αCTLA4 and tumor growth was measured by IVIS imaging to 25 and 190 days (FIG. 6D). […]

The next assay concerns MPSCs. Put plainly: Proliferation of mouse PSCs by MTS assay at 7 days. In kind it is cell-based. As for the experimental part: FIGS. 12A-D. DKK3 expression in mouse PSCs and effects of treatment with DKKC mAb on survival. (FIG. 12A) Western blot analysis of recombinant human and mouse DKK3 under denaturing and non-denaturing conditions using JM6-6-1 mAb. (FIG. 12B) Expression of murine DKK3 in murine PSCs (MPSC) or 3T3 cells was determined by RT-PCR. 18S was used as loading control. (FIG. 12C) Proliferation of MPSCs treated with DKK3 mAb was measured at 7 days by MTS assay. ***p<0.001 vs. PBS. (FIG. 12D) Pdx1-Cre; Kras LSL-G12D;Trp53fl/+ model of PDAC was treated with DKK3 mAb JM6-6-1 or control mAb JM4-74 (5 mg/kg i.p. q5d). Kaplan-Meier survival curves are shown (log rank test). At 0% survival, the right line is JM6-6-1, the middle lines is PBS, and the left line is Control Ab.
Cell-based assays. Cell proliferation was measured by the MTS assay (Promega, Madison, Wis.). Cell migration and invasion studies with stimulation by recombinant human DKK3 (R&D, Minneapolis, Minn.) were performed using 6.5-mm Transwell® with 8.0-μm pore membrane Insert (Corning Incorporated) and BioCoat Matrigel-coated invasion chambers (BD Biosciences, Bedford, Mass.).

B1: JM6-6-1: monoclonal antibody against human DKK3; heavy chain variable SEQ ID NO: 19, light chain variable SEQ ID NO: 20 (antibody, V domains shown)
VH: EVKLVESGGGLVKPGGSLKLSCAASGFTFTIEYMAWIRQTPEKRLEWVASISSGGDDIYYADNVKGRFTISRDNAKNTLYLQMSSLKSEDTAIYYCSRSLSDWGQGTTLTVSSAKTTPPSDYPLA
VL: MTQTPLSLPVSLGDQASISCRSSQSILHSNGHTYLEWYLQKPGQSPKLLIYKVSNRFSGVPDRFSGSGSGTDFTLKISRVEAEDLGVYYCFQGSHVPFTFGSGTKLEIERADAAQ
Turning to B1, in assay [1], the “effect on survival compared to PBS or control mAb” value was “no effect on survival” and the median survival was 58 days. In the assay with MPSCs, the “proliferation of mouse PSCs” value is listed as “inhibited proliferation”.
